Laboratory results reported in the supplement of paper PMC10567573.

B1: ANKRD40 (parent)
chain: SLRENDFIEIELDRQELTYQELLR
B2: PDLIM7 (parent)
chain: AAGGVPGGGSNNGKTPVCHQCHKV

Variants of: B1
Assay: protein stability index of a GFP-peptide fusion (GPS, HEK-293T) (PSI 1-6); higher = more stable
Conditions: c terminus: a fixed tail appended
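Further: lentivirally expressed fusions sorted by FACS into six bins by GFP to DsRed ratio, PSI derived from sequencing read proportions per bin multiplied by bin number.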

Protein stability index, by site and new letter:
E9: C 2.17, D 3.47, F 1.82, G 3.33, H 2.27, I 1.63, K 2.4, L 2.14, M 2.14, N 2.82, P 3.59, Q 2.51, R 1.97, S 2.73, T 2, V 1.87, W 1.57, Y 2.12
I10: A 4.02, C 3.69, D 4.12, E 4.63, F 3.41, G 3.55, H 4.34, K 3.48, L 3.16, M 3.62, N 3.75, P 4.24, Q 4.26, R 3.53, S 3.68, T 4.06, V 3.32, W 3.19, Y 3.33
E11: A 3.15, C 2.37, D 3.59, F 2.28, G 3.26, H 2.68, I 2.16, K 2.45, L 1.94, M 2.41, N 3.33, P 3.75, Q 2.74, R 2.44, S 2.45, T 2.35, V 2.29, W 1.98, Y 2.16
L12: A 3.92, C 3.88, D 4.51, E 4.41, F 2.73, G 4.4, H 3.82, I 2.69, K 3.91, M 2.67, N 4.17, P 3.72, Q 4.13, R 4.14, S 4.18, T 3.88, V 3.54, W 2.8, Y 3.34
D13: A 2.56, C 2.35, E 2.82, F 1.99, G 2.77, H 2.22, I 1.77, K 2.55, L 2.04, M 2.45, N 3.17, P 2.77, Q 2.93, R 2.65, S 2.54, T 2.15, V 1.78, W 1.81, Y 1.87
R14: A 2.87, C 2.09, D 3.85, E 3.37, F 1.44, G 3, H 2.97, I 2.86, K 3.31, L 1.73, M 1.85, N 3.54, P 2.86, Q 3.41, S 3.06, T 3.01, V 2.06, W 1.79, Y 1.95
Q15: A 2.63, C 2.62, D 3.59, E 3.28, F 2.09, G 3.68, H 2.75, I 1.89, K 3.29, L 2.78, M 2.25, N 3.35, P 2.78, R 3.41, S 3.17, T 2.91, V 2.44, W 2.37, Y 2
E16: A 2.8, C 2.46, D 3.24, F 2.5, G 2.91, H 2.89, I 2.47, K 2.93, L 2.99, M 2.6, N 3.5, P 3.42, Q 3.18, R 3.04, S 3.48, T 2.76, V 2.48, W 2.55, Y 2.15
L17: A 3.11, C 3.12, D 3.71, E 3.37, F 2.61, G 3.3, H 3.59, I 3.19, K 3.61, M 2.92, N 3.54, P 2.74, Q 3.57, R 3.25, S 3.41, T 3.35, V 2.9, W 3.1, Y 3.28
T18: A 3.06, C 2.46, D 3.71, E 3.49, F 1.85, G 3.53, H 3.2, I 2.1, K 2.93, L 2.49, M 2.12, N 3.5, P 3.28, Q 3.37, R 3.29, S 3.55, V 2.22, W 2.73, Y 2.59
Y19: A 4.12, C 2.93, D 4.59, E 4.6, F 2.31, G 3.86, H 3.71, I 2.73, K 3.99, L 3.12, M 3.22, N 4.22, P 4.43, Q 4.47, R 4.13, S 3.79, T 3.5, V 3.38, W 2.61
Q20: A 2.72, C 2.16, D 3.7, E 3.58, F 1.99, G 3.15, H 2.76, I 1.83, K 3.2, L 2.04, M 2.3, N 2.65, P 2.95, R 2.3, S 3.3, T 2.97, V 2.62, W 2.25, Y 2.29
E21: A 2.44, C 1.94, D 2.85, F 1.69, G 2.67, H 2.76, I 1.9, K 2.67, L 1.69, M 1.92, N 2.83, P 2.36, Q 3.34, R 2.62, S 2.71, T 2.09, V 1.99, W 1.85, Y 1.77
L22: A 3.8, C 3.58, D 4.54, E 3.66, F 3.14, G 3.57, H 3.42, I 2.53, K 3.97, M 3.34, N 3.92, P 3.56, Q 4.02, R 3.74, S 3.8, T 3.45, V 2.77, W 2.86, Y 2.9
L23: A 3.73, C 2.97, D 4.25, E 3.99, F 2.54, G 3.48, H 3.6, I 2.76, K 3.85, M 3.16, N 4.05, P 3.58, Q 3.94, R 3.75, S 4, T 3.59, V 3.53, W 2.04, Y 3.43
R24: A 3.23, C 2.72, D 3.17, E 3.88, F 2.64, G 3.27, H 2.77, I 2.35, K 3.12, L 3.09, M 2.52, N 3.49, P 3.06, Q 3.04, S 2.92, T 3.06, V 2.71, W 2.26, Y 2.43

Variants of: B2
Assay: as above
Conditions: c terminus: a fixed tail appended

Protein stability index, by site and new letter:
A1: C 3.35, D 4.34, E 4.24, F 2.45, G 3.52, H 4.13, I 3.52, K 3.36, L 3.76, M 3.5, N 3.03, P 3.33, R 2.36, S 2.44, T 2.73, V 3.93, W 3.22, Y 1.95
A2: C 2.73, D 3.81, E 4.76, F 3.86, G 3.43, H 3.63, I 3.49, K 4.11, L 3.53, M 3.78, N 4.08, P 2.15, Q 4.19
